Experimental findings from patent US20180346602A1 are described below.

For assay [1], the target named is anti-VEGF/ANG2 antibody (IgG1 subclass with mutations P329G/L234A/L235A/I253A/H310A/H435A) [IgG part: P01857]. Nature of the assay: sandwich ELISA in serum; capture M1.3.17, tracer M1.7.24; anti-VEGF/ANG2 antibody 0 ng/mL (blank).
The target is the same in assay [2]. Briefly: bridging ELISA; biotinylated and digoxigenylated anti-VEGF/ANG2 antibody bridged by M1.3.17 at 0 ng/mL (blank). For orientation: In an ELISA, binding on a coated surface is turned into a signal by an enzyme label.
For assay [3] the target is unchanged. Nature of the assay: sandwich ELISA in serum; capture M1.3.17, tracer M1.7.24; anti-VEGF/ANG2 antibody 78.125 ng/mL.
Assay [4] has as its target anti-VEGF/ANG2 antibody (IgG1 subclass with mutations P329G/L234A/L235A/I253A/H310A/H435A) (human) [IgG part: P01857]. Briefly: sandwich ELISA in serum; M1.3.17-Bi capture on SA plate; tracer anti-human kappa M1.7.10-Dig; analyte 1.25 ng/mL.
Assay [5] concerns the target anti-VEGF/ANG2 antibody (IgG1 subclass with mutations P329G/L234A/L235A/I253A/H310A/H435A) [IgG part: P01857]. Nature of the assay: bridging ELISA; biotinylated and digoxigenylated anti-VEGF/ANG2 antibody bridged by M1.3.17 at 125 ng/mL.
Assay [6] concerns the target cytokine (IL-2) antibody conjugate with the mutations P329G, L234A, L235A, I253A, H310A, and H435A. Nature of the assay: sandwich ELISA in serum; capture anti-IL2 antibody, tracer M1.7.24; conjugate 0 ng/mL (blank).
In assay [7] the target is anti-VEGF/ANG2 antibody (IgG1 subclass with mutations P329G/L234A/L235A/I253A/H310A/H435A) [IgG part: P01857]. Briefly: sandwich ELISA in serum; capture M1.7.10-Bi, tracer M1.7.24-Dig; anti-VEGF/ANG2 antibody 0.078125 ng/mL.
The target of assay [8] is cytokine (IL-2) antibody conjugate with the mutations P329G, L234A, L235A, I253A, H310A, and H435A. Nature of the assay: sandwich ELISA in serum; capture anti-IL2 antibody, tracer M1.7.24; conjugate 156.25 ng/mL.
In assay [9] the target is anti-VEGF/ANG2 antibody (IgG1 subclass with mutations P329G/L234A/L235A/I253A/H310A/H435A) [IgG part: P01857]. Briefly: sandwich ELISA in serum; capture M1.7.10-Bi, tracer M1.7.24-Dig; anti-VEGF/ANG2 antibody 5 ng/mL.
Assay [10] concerns the target cytokine (IL-2) antibody conjugate with the mutations P329G, L234A, L235A, I253A, H310A, and H435A. Nature of the assay: sandwich ELISA in serum; capture anti-IL2 antibody, tracer M1.7.24; conjugate 625 ng/mL.
The target of assay [11] is anti-VEGF/ANG2 antibody (IgG1 subclass with mutations P329G/L234A/L235A/I253A/H310A/H435A) [IgG part: P01857]. Briefly: sandwich ELISA in serum; capture M1.7.10-Bi, tracer M1.7.24-Dig; anti-VEGF/ANG2 antibody 2.5 ng/mL.

B1: anti-variant (human) Fc-region antibody M1.3.17 (antibody, V domains shown)
VH: EVKLLESGGGLVQPGGSLKLSCAASGIDFRRYWMNWVRQAPGKGLEWIGEIDPDSSTINYTPSLKDKFIISRDNAKNTMYLQMRKVRSEDTALYYCARPYDYGAWFAYWGQGTLVTVSA
VL: QAVVTQESALTTSPGETVTLTCRSTTGAVTTSNYANWVQEKPDHLFTGLIGGTNKRAPGVPARFSGSLIGDKAALTITGAQTEDEAIYFCALWYSDHWVFGGGTKLTVL
As to B1, the signal [OD405 nm] in assay [1] came out at 0.175 OD405 nm; in [2], 0.046 OD405 nm; in [3] it was 0.301 OD405 nm; in assay [4], 0.573 OD405 nm; in assay [5] it was 0.085 OD405 nm.

B2: anti-variant (human) Fc-region antibody M1.7.24 (antibody, V domains shown)
VH: EVKLLESGGGLVQPGGSLKLSCAASGFDFSRYWMNWVRQAPGKGLEWIGEITPDSSTINYTPSLKDKFIISRDNAKNTLYLQMIKVRSEDTALYYCVRPYDYGAWFASWGQGTLVTVSA
VL: QAVVTQESALTTSPGETVTLTCRSSTGAVTTSNYANWVQEKPDHLFTGLIGGTNKRAPGVPARFSGSLIGDKAALTITGAQTEDEAIYFCALWYSNHWVFGGGTKLTVL
As for B2, the signal [OD405 nm] is 0.0475 OD405 nm in assay [6]; 0.096 OD405 nm in [7]; 0.253 OD405 nm in assay [8]; 2.17 OD405 nm in assay [9]; 0.811 OD405 nm in assay [10]; 1.44 OD405 nm in [11].
